The target in the assay is HIVSF162 Env on pseudotyped virions (HIV-1 SF162) (UniProt P19550). Put plainly: cell-based or functional assay.

For human Mab 697D (antibody), the ND50 is 80 µg/mL.

The values above are taken from patent US20050058983A1.
